Positions count from the first letter of the chain named. In names and notes the source's numbering stands.

In data set [1] the target is T1, Clostridium phytofermentans ISDg xylose isomerase (CpXI, SEQ ID NO: 11) mutant CpXI-T63I (Lachnoclostridium phytofermentans, UniProt A9KN98, T63I).
T1 construct: cell lysate
The data set is described as follows: Xylose isomerase activity (kinetic parameters) in cell disruption solution, strain SS82. Type of data set: biochemical. As to conditions: T63I vs wild type CpXI.

In data set [2] the target is T2, Clostridium phytofermentans ISDg xylose isomerase (CpXI, SEQ ID NO: 11) mutant CpXI-V162A, N303T (Lachnoclostridium phytofermentans, UniProt A9KN98, N303T/V162A).
T2 construct: cell lysate
The data set is described as follows: Xylose isomerase activity (kinetic parameters) in cell disruption solution, strain SS92. Type of data set: biochemical. As to conditions: N303T vs wild type CpXI.

Data set [3] addresses T3, Clostridium phytofermentans ISDg xylose isomerase (CpXI, SEQ ID NO: 11) mutant CpXI-N303T (Lachnoclostridium phytofermentans, UniProt A9KN98, N303T).
T3 construct: cell lysate
The data set is described as follows: Xylose isomerase activity (kinetic parameters) in cell disruption solution, strain SS105. To be noted: cell disruptate after 24 h microaerobic fermentation, xylose 10-500 mM, pH 8.0, 30° C. Type of data set: biochemical. The source says:
(§1) The created mutant CpXI-V162A gene expression plasmid (Table 3: plasmid No. 31) and CpXI-N303T gene expression plasmid (Table 3: plasmid No. 32) were cleaved with BsiWI and used for transformation of strain SS29. The obtained strains were designated as strain SS104 (Table 4: strain No. 29) and strain SS105 (Table 4: strain No. 30), respectively.

Data set [4] addresses T4, Clostridium phytofermentans ISDg xylose isomerase (CpXI, SEQ ID NO: 11) double mutant CpXI-T63I, V162A (Lachnoclostridium phytofermentans, UniProt A9KN98, T63I/V162A).
T4 construct: cell lysate
The data set is described as follows: Xylose isomerase activity (kinetic parameters) in cell disruption solution, strain SS120. Type of data set: biochemical. As to conditions: cell disruptate after 24 h microaerobic fermentation, xylose 10-500 mM, pH 8.0, 30° C.

Data set [5] concerns the target Clostridium phytofermentans ISDg xylose isomerase (CpXI), wild type, SEQ ID NO: 11 (Lachnoclostridium phytofermentans, UniProt A9KN98).
Data set [6] deals with Piromyces sp. E2 xylose isomerase mutant E15D, E114G, E129D, T142S, A177T and V433I. As to conditions: mutant vs wild type Piromyces sp. E2 xylose isomerase; NPL 10; cited from earlier work.
Substrate in data set [7]: OC1OC[C@@H](O)[C@H](O)[C@H]1O
The data set is described as follows: cells, lysate or membranes. The data set is classed as biochemical, Clostridium phytofermentans ISDg. To be noted: cell disruptate after 24 h microaerobic fermentation, xylose 10-500 mM, pH 8.0, 30° C.

Substrate in data set [8]: OC1OC[C@@H](O)[C@H](O)[C@H]1O
The data set is described as follows: cells, lysate or membranes. To be noted: other: wild type (SS81), cell disruptate after 24 h microaerobic fermentation, xylose 10-500 mM, pH 8.0, 30° C.

Substrate in data set [9]: OC1OC[C@@H](O)[C@H](O)[C@H]1O
The data set is described as follows: cells, lysate or membranes. To be noted: cell disruptate after 24 h microaerobic fermentation, xylose 10-500 mM, pH 8.0, 30° C. The data set is classed as biochemical, Clostridium phytofermentans ISDg.
From the text: as §1
This is another data set of the same source.

For the molecule `OC1OC[C@@H](O)[C@H](O)[C@H]1O` (stereo partly drawn) [xylose, D-xylose], the “metabolic activity (Vmax) higher than the wild type” value in data set [1] is listed as 38%. The “Vmax value compared with the wild type” value in [2] was “equivalent to the wild type”. Besides, the values for the Vmax value in data set [3], in data set [4] and in data set [5] were 0.030 ± 0.001 μmol mg protein^−1 min^−1, 0.104 ± 0.003 μmol mg protein^−1 min^−1 and 0.66 μmol/mg protein/min, respectively. The “Km value compared with the wild type” value in data set [6] is listed as “approximately twice as high”. Besides, in data set [6], the “Vmax value larger than the wild type” value is 77%.

B1: Clostridium phytofermentans ISDg xylose isomerase (CpXI, SEQ ID NO: 11) mutant CpXI-T63I (Lachnoclostridium phytofermentans ISDg; T63I) (protein)
chain: MKNYFPNVPEVKYEGPNSTNPFAFKYYDANKVVAGKTMKEHCRFALSWWHTLCAGGADPFGVITMDRTYGNITDPMELAKAKVDAGFELMTKLGIEFFCFHDADIAPEGDTFEESKKNLFEIVDYIKEKMDQTGIKLLWGTANNFSHPRFMHGASTSCNADVFAYAAAKIKNALDATIKLGGKGYVFWGGREGYETLLNTDLGLELDNMARLMKMAVEYGRANGFDGDFYIEPKPKEPTKHQYDFDTATVLAFLRKYGLEKDFKMNIEANHATLAGHTFEHELAMARVNGAFGSVDANQGDPNLGWDTDQFPTDVHSATLAMLEVLKAGGFTNGGLNFDAKVRRGSFEFDDIAYGYIAGMDTFALGLIKAAEIIDDGRIAKFVDDRYASYKTGIGKAIVDGTTSLEELEQYVLTHSEPVMQSGRQEVLETIVNNILFR
notes: cell lysate
Usually Km stands for the substrate concentration at which the rate is half of its maximum. The Vmax is the top rate of the reaction or transport when substrate is in excess. For B1, in data set [7] (other: T63I (SS82)), the Km came out at 29.2 mM and the Vmax was 0.091 µmol/min/mg.

B2: Clostridium phytofermentans ISDg xylose isomerase (CpXI), wild type, SEQ ID NO: 11 (Lachnoclostridium phytofermentans ISDg) (protein)
chain: B1 chain with I63T
For the molecule B2, in data set [8], the Km amounted to 46.9 mM and the Vmax came out at 0.066 µmol/min/mg.

B3: Clostridium phytofermentans ISDg xylose isomerase (CpXI, SEQ ID NO: 11) mutant CpXI-N303T (Lachnoclostridium phytofermentans ISDg; N303T) (protein)
chain: B1 chain with I63T, N303T
notes: cell lysate
As for B3, in [9] (other: N303T (SS105)), the Michaelis constant (Km) is listed as 19.1 mM and the Vmax is 0.03 µmol/min/mg.

B4: Clostridium phytofermentans ISDg xylose isomerase (CpXI, SEQ ID NO: 11) mutant CpXI-V162A (Lachnoclostridium phytofermentans ISDg; V162A) (protein)
chain: B1 chain with I63T, V162A
notes: cell lysate
Consider B4, for which, in data set [9] (other: V162A (SS104)), the Km is recorded as 29.5 mM and the Vmax is 0.063 µmol/min/mg.

B5: Clostridium phytofermentans ISDg xylose isomerase (CpXI, SEQ ID NO: 11) double mutant CpXI-T63I, V162A (Lachnoclostridium phytofermentans ISDg; T63I/V162A) (protein)
chain: B1 chain with V162A
notes: cell lysate
B5: in [7] (other: T63I, V162A (SS120)), the Km worked out at 34.4 mM and the Vmax was 0.104 µmol/min/mg.

B6: Clostridium phytofermentans ISDg xylose isomerase (CpXI, SEQ ID NO: 11) mutant CpXI-V162A, N303T (Lachnoclostridium phytofermentans ISDg; N303T/V162A) (protein)
chain: B1 chain with I63T, V162A, N303T
notes: cell lysate
With B6, in data set [7] (other: V162A, N303T (SS92)), the Km was found to be 28.4 mM and the Vmax stood at 0.066 µmol/min/mg.

The record behind these values is patent publication US10626404B2, “Mutant xylose-metabolizing enzyme and use thereof” (National Institute of Advanced Industrial Science and …, priority 2016, dated 2020).
